For 167 variants, self-cleavage results are on record in the RNAGym collection of RNA variant scans (doi:10.7554/elife.80360).

B1: CPEB3 Ribozyme (parent)
chain: GGGGGCCACAGCAGAAGCGUUCACGUCGCGGCCCCUGUCAGAUUCUGGUGAAUCUGCGAAUUCUGCUGU

The variants in the series derive from B1. Description: self-cleavage, relative activity (ratio to wild type); higher = more cleavage; co-transcriptional.
As for G4A G68A, the self-cleavage was 0.999. In the case of G4A G68C it was 0.959. Regarding G3C U67C, the self-cleavage is 0.218. In the case of G3A G31U it was 0.154. The result for G3A A23U reads 0.79; that for G3U G4U, 0.0247; that for G4C U43G, 0.26.

With G4C U43C, the self-cleavage was 0.406. With G3A U55A, the self-cleavage amounted to 0.395.

Turning to G4C G41U, the self-cleavage stood at 0.159. The result for G3U G17A reads 0.0459. The result for G3U C6A reads 0.0458; that for G3U C45G, 0.112; that for G3U C45A, 0.105.

In the case of G3U A42C, the self-cleavage stood at 0.0373. In the case of G3U A42G, the self-cleavage is 0.11.

Consider G3U A42U, for which the self-cleavage amounted to 0.0748.

As for G3C U61C, the self-cleavage amounted to 0.0948. As to G3C U61A, the self-cleavage is 0.0406. In the case of G3A G25A it was 0.0615; in that of G3A G25C, 0.0661; in that of G3U C66A, 0.0783. The result for G4C G48A reads 0.731; that for G3C U49A, 0.168; that for G4C C7G, 0.0794. The result for G3U G31C reads 0.0621; that for G4C G19C, 0.104. As for G4C G19U, the self-cleavage was 0.103. The result for G3A G58C reads 0.338; that for G3A G58A, 0.315; that for G4A G14A, 0.401. Turning to G3C A15U, the self-cleavage turned out to be 0.0699.

For the variant G3C G41C, the self-cleavage worked out at 0.0352. In the case of G4C C35U it was 0.0739. Regarding G3U U46A, the self-cleavage came to 0.162.

Consider G4A U36A, for which the self-cleavage worked out at 0.13. The result for G4C C24U reads 0.124; that for G3A U36G, 0.206; that for G3A U36A, 0.0867.

For G3A U36C, the self-cleavage amounted to 0.433. Take G4C A10G: the self-cleavage is 0.748. In the case of G4C A10C it was 0.844; in that of G4A U61C, 0.433; in that of G4A A23C, 0.573. The result for G4A C12U reads 0.876; that for G3C G48A, 0.117; that for G3U U55G, 0.0975. The result for G3U U55A reads 0.0915; that for G3C C12G, 0.0121. For the variant G3A U64C, the self-cleavage was 0.436. In the case of G3A U64G it was 0.521; in that of G3A U64A, 0.458; in that of G3U G50U, 0.171. In the case of G3U G50A, the self-cleavage stood at 0.172. In the case of G4C G47C it was 0.718; in that of G4A A42U, 0.721; in that of G3A C34U, 0.91. The result for G3U C9U reads 0.521. The result for G3U C9A reads 0.655; that for G3U U43G, 0.0687. With G3C C33G, the self-cleavage came to 0.0238. The result for G3U G14A reads 0.0323; that for G3A U26C, 0.571; that for G4A A51C, 0.702. Regarding G4A A51G, the self-cleavage was determined as 0.787. For the variant G3U C7G, the self-cleavage amounted to 0.0286.

Regarding G3A U46A, the self-cleavage amounted to 0.67.

With G3A U46C, the self-cleavage is 0.597.

For the variant G4A G28A, the self-cleavage was found to be 0.117.

For the variant G3U U67G, the self-cleavage worked out at 0.312.

G3U U67C: the self-cleavage came out at 0.317. In the case of G3U U36A it was 0.0376.

With G4C C32A, the self-cleavage turned out to be 0.188.

In the case of G4C C32G, the self-cleavage is 0.0983. For G4A C66G, the self-cleavage is 0.799. In the case of G4A G41U it was 0.525; in that of G4A G41C, 0.341; in that of G4A G19A, 0.092. For G3U C33G, the self-cleavage came out at 0.0603. The result for G3A C63U reads 0.627; that for G4C G56U, 0.339; that for G3U U53G, 0.0759. Take G3A A52C: the self-cleavage was determined as 0.577. In the case of G3A A60C it was 0.152.

With G3A A60G, the self-cleavage was determined as 0.32. In the case of G4C C29U it was 0.131; in that of G3A G37C, 0.126; in that of G4A U49A, 0.852.

In the case of G3A C35A, the self-cleavage was found to be 0.102.

Take G3A A13C: the self-cleavage amounted to 0.298. The result for G3C C63G reads 0.0687.

Turning to G3C C63U, the self-cleavage came out at 0.171. For G3U U26A, the self-cleavage amounted to 0.0295. For G4A G47U, the self-cleavage is 0.899.

Turning to G3A G65C, the self-cleavage is 0.338. In the case of G4A G31A, the self-cleavage stood at 0.227. In the case of G4A U21A it was 0.793.

On to G4A C45G, for which the self-cleavage is 0.691. In the case of G4C A42G it was 0.667.

For the variant G4C U46A, the self-cleavage turned out to be 0.663. In the case of G4C U46G it was 0.601; in that of G3C U62A, 0.0658.

G3U G5U: the self-cleavage was 0.0488. The result for G4C G68C reads 0.941; that for G4C G68A, 0.976. The result for G3C G50U reads 0.133; that for G3C G50C, 0.0988. The result for G3A A8C reads 0.721; that for G3A A8G, 0.527.

In the case of G4A U69C, the self-cleavage was 1.04. In the case of G4C G17A it was 0.0822. In the case of G4C G17U it was 0.0737; in that of G3C C29A, 0.0865. The result for G3C C29U reads 0.0376; that for G3A C7G, 0.112; that for G3A C7A, 0.0813. For G4C U49A, the self-cleavage stood at 0.657. In the case of G4C U49G it was 0.341. The result for G4C U49C reads 0.548; that for G3C U44C, 0.132. In the case of G2U U69C it was 0.208; in that of G3U G47A, 0.192; in that of G4A G5U, 0.0889. Regarding G4C A59C, the self-cleavage worked out at 0.187. In the case of G3A C22U it was 0.0997; in that of G3C U38C, 0.0718.

With G4A C63A, the self-cleavage amounted to 0.483. In the case of G4A C63G it was 0.521; in that of G3U C35U, 0.0525. The result for G3C G65A reads 0.117; that for G4A A16C, 0.0992.

With G3A C27G, the self-cleavage is 0.056. G3A C27A: the self-cleavage was 0.153. G3A C27U: the self-cleavage turned out to be 0.0889. Regarding G4A U20C, the self-cleavage was found to be 0.128.

For the variant G4C C6U, the self-cleavage is 0.132.

Take G4C G5A: the self-cleavage came out at 0.0843. In the case of G4C U62A it was 0.157; in that of G3U A23C, 0.135. In the case of G3U A23U it was 0.344; in that of G3C G28U, 0.0508. The result for G3U G48C reads 0.151; that for G3U G48U, 0.135. Regarding G4C C34A, the self-cleavage was 0.16. The result for G4C C34U reads 0.383; that for G3U A52G, 0.122; that for G3U A52U, 0.142.

G3U A52C: the self-cleavage worked out at 0.0886.

In the case of G3C A60U, the self-cleavage was 0.0697. The result for G4A U62G reads 0.419. The result for G4A U62A reads 0.601. In the case of G3A G56C it was 0.253; in that of G4C A13C, 0.216.

Take G3C A59U: the self-cleavage was 0.0529.

As to G3C G19U, the self-cleavage worked out at 0.0242.

Regarding G3A U61G, the self-cleavage came out at 0.278. The result for G3C G58C reads 0.0803; that for G3A U49C, 0.705.

Regarding G4A C32U, the self-cleavage was determined as 0.495. With G4A C32G, the self-cleavage is 0.171.

With G3C A23U, the self-cleavage worked out at 0.28. For G3C C6A, the self-cleavage turned out to be 0.0513. The result for G3A A59C reads 0.199; that for G3C C35G, 0.0557.

G3C C35A: the self-cleavage is 0.0343. The result for G4A G58C reads 0.701; that for G4C G30C, 0.0792.
